Reference: patent publication US20080286275A1 (ISTITUTO DI RICERCHE DI BIOLOGIA MOLECOLARE P ANGELETTI S P …, published 2008)

T1: human scavenger receptor class B type I (SR-B1) (human, UniProt Q8WTV0 1-467)
T1 construct: The same entry is used for all three; also called SR-BI; SR-B1 receptor
T1 sequence: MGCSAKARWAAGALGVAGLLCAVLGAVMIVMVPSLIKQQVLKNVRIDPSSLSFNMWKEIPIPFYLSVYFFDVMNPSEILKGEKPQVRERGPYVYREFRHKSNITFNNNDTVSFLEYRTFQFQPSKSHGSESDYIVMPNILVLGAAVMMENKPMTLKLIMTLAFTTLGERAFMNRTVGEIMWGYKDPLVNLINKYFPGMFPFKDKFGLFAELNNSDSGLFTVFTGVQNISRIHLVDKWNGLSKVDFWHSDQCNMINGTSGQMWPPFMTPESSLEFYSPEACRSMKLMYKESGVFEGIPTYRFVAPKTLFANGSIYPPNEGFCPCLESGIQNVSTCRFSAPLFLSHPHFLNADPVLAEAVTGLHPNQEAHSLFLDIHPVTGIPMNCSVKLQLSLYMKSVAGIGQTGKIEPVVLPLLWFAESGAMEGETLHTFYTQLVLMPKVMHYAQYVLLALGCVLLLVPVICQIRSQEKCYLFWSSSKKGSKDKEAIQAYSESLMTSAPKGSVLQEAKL

B1: single-chain antibody of SEQ ID NO: 1 (scFv)
scFv: EVQLVQSGAEVRKPGATVKISCKLTGDTFTDYFIFWLQLAPGKGLQWMGLIDPKDAQTIYAEKFQGRVAITADTSTDTAYMEVSSLRSEDTAVYYCATDSVGAAGFDVWGRGTMVTVSSGGGGSGGGGSGGGGSALPVLTQPPSASGAPGQRVTFSCSGSGSNIGSYTVNWYQQLPGAAPRLLMHTTDQRASGAPDRFSGSKSGTSASLAITGLQSEDEADYFCAAWDDSLDGPVFGGGTKLTVL
notes: VH-linker(Ser/Gly)-VL from the CAT phage library CS, produced outside the phage context
B2: single-chain antibody of SEQ ID NO: 4 (scFv)
scFv: EVQLVQSGAEVRKPGTAVKISCKVAGDTFTDYFIYWLQQAPGKGPEWMGLIDPKDAQTIYAEKFQGRVAITADTSTDTAYMELSSLKSEDTAVYYCATDSVGSAGFDVWGQGTLVTVSSGGGGSGGGGSGGGGSALPVLTQPPSASGAPGQRVTFSCSGSGSNIGSYTVNWYQQLPGAAPRLLMHTTDQRASGVPDRFSGSKSGTSASLAITGLQSEDEADYFCAAWDDSLDGPVFGGGTKLTVL
notes: as for B1
B3: single-chain antibody of SEQ ID NO: 2 (scFv)
scFv: QVQLQESGPGLVKPSETLSLNCTVSGGSISSSSYYWGWIRQPPGKGLEWIGSVYYTGNTYYNPSLKSRVTMSVDTSKNQFSLKLNSVTAADTAVYYCARHVLGGGWEVSQRFDYWGRGTLVTVSSGGGGSGGGGSGGGGSAQSVLTQPPSASGTPGQRVTISCSGSSSNIGSNPVNWYQQLPGTAPKLLIHTNNQRPSGVPDRFSGSKSGTSASLAISGLLSEDEADYYCAAWDDSLNAYVFGTGTKVTVL
notes: VH-linker(Ser/Gly)-VL from the CAT phage library CS, produced outside the phage context; also called scFVC11
B4: single-chain antibody of SEQ ID NO: 3 (scFv)
scFv: EVQLVETGAEVKKPGSSVKVSCKASGDTLSSHAIIWVRQAPGQGLEWMGGIIPIFRTVNYAQKFQGRVTITADDSTSTAYMELNDLRSEDTAVYYCAKTLNEGLPWDYWGQGTLVTVSSGGGGSGGGGSGGGGSAQSVLTQPPGASGAPGQRVTISCSGDSSNIESYAVNWYQQVPGMAPKLLIYRDNQRPSGVPDRFSGSRSGTSASLAISGLQSEDEADYYCGSWDDNLNGPTFGGGTKVTVL
notes: as for B1
B5: IgG4 molecule containing SEQ ID NO: 2 variable regions (antibody, V domains shown)
VH: QVQLQESGPGLVKPSETLSLNCTVSGGSISSSSYYWGWIRQPPGKGLEWIGSVYYTGNTYYNPSLKSRVTMSVDTSKNQFSLKLNSVTAADTAVYYCARHVLGGGWEVSQRFDYWGRGTLVTVSS
VL: not shown
notes: The primers may have added amino acids
B6: IgG4 molecule containing SEQ ID NO: 4 variable regions (antibody, V domains shown)
VH: EVQLVQSGAEVRKPGTAVKISCKVAGDTFTDYFIYWLQQAPGKGPEWMGLIDPKDAQTIYAEKFQGRVAITADTSTDTAYMELSSLKSEDTAVYYCATDSVGSAGFDVWGQGTLVTVSS
VL: LPVLTQPPSASGAPGQRVTFSCSGSGSNIGSYTVNWYQQLPGAAPRLLMHTTDQRASGVPDRFSGSKSGTSASLAITGLQSEDEADYFCAAWDDSLDGPVFGGGTKLTVL
notes: as for B5

These binders were tested against T1, human scavenger receptor class B type I … (assay: FACS competition on HepG2 cells, scFv concentration varied, competitor soluble E2).
B1: binds.
B2: binds.
B3: binds.
B4: binds.

These binders were tested against T1, human scavenger receptor class B type I … (assay: FACS competition on Cho7s cells expressing human SR-B1, IgG concentration varied (60-12-2.4 µg/ml), competitor His-tagged soluble E2).
B5: binds.
B6: binds.
